Literature values, collected in patent US11911476B2, “Process for preparing a drug delivery composition” (PK MED SAS, priority 2017, dated 2024).

Conditions: temperature at which half of the drug loses its activity

Row | Substance | denaturation temperature
1 | Adalimumab | about 75 °C
2 | lysozyme | 76 °C
